Reference: patent publication US11911450B2, “Method for managing pain” (UNIVERSITY OF MIAMI, priority 2017, dated 2024)

B1: Car10: carbonic anhydrase 10, rodent ortholog, overexpressed (V5-tagged) protein (protein)
chain: MEIVWEVLFLLQANFIVCISAQQNSPKIHEGWWAYKEVVQGSFVPVPSFWGLVNSAWNLCSVGKRQSPVNIETSHMIFDPFLTPLRINTGGRKVSGTMYNTGRHVSLRLDKEHLVNISGGPMTYSHRLEEIRLHFGSEDSQGSEHLLNGQAFSGEVQLIHYNHELYTNVTEAAKSPNGLVVVSIFIKVSDSSNPFLNRMLNRDTITRITYKNDAYLLQGLNIEELYPETSSFITYDGSMTIPPCYETASWIIMNKPVYITRMQMHSLRLLSQNQPSQIFLSMSDNFRPVQPLNNRCIRTNINFSLQGKDCPNNRAQKLQYRVNEWLLK
modifications: left off: small tags and cut ends
notes: carbonic anhydrase 10, rodent ortholog, overexpressed (V5-tagged) protein
B2: CA10: human carbonic anhydrase 10, overexpressed (V5-tagged) protein; SEQ ID NO: 9 (protein)
chain: B1 chain
modifications: V5 tag

Key:
[1] = system: neuropathic (Chung) mouse pain model; assay: neuropathic (Chung, spinal nerve ligation) mouse pain model, mechanical withdrawal threshold (von Frey); format: in vivo, C57BL/6J mice; settings: sciatic nerve injection; spinal nerve ligation on Day 19
Description: Sciatic nerve injection of expression vectors (adeno-associated AAV8-V5-Car10 and AAV8-V5-CA10 vectors): Mice were anesthetized by intraperitoneal injection of Ketamine, xylazine and acepromazine cocktail (VEDCO, Saint Joseph, MO). Following sciatic nerve exposure, about 1.5 μl viral particles of AAV8-null (1.36E^13 viral particles, SL100832 SignaGen Laboratories Rockville, MD), AAV8-V5-Car10 and AAV8-V5-CA10 (1.06E^14 viral particles and 1.66E^14 viral particles, respectively) were injected into the sciatic nerve using a 35-gauge Nanofil needle (World Precision Instruments, Sarasota, FL). The sciatic injection site was approximately 45 mm from the tip of the third toe.
Neuropathic pain model: For the induction of peripheral neuropathy, mice were first anesthetized by an intraperitoneal injection of ketamine, xylazine hydrochloride and acepromazine (VEDCO, Saint Joseph, MO). […]
Behavioral tests: Thermal and mechanical sensitivity was measured by Hargreaves test and von Frey filament threshold calculations respectively. […] The mouse hind paw was pressed with one of a series of von Frey filaments with logarithmically incrementing stiffness (Stoelting Co, Wood Dale, IL) presented perpendicular to the plantar surface of each hind paw for 1-2 seconds, the 50% threshold was determined using the Up- and Down method.

[2] = morphine dose vs paw withdrawal latency; format: in vivo, mouse; settings: allometric conversion to 60 kg human
Description: Behavioral tests: Thermal and mechanical sensitivity was measured by Hargreaves test and von Frey filament threshold calculations respectively. See, e.g., Boyce-Rustay et al. Methods Mol Biol. 2010; 617:41-55; Hargreaves et al., Pain. 1988; 32(1):77-88; and Chaplan et al., J Neurosci Methods. 1994; 53(1):55-63. Tests were performed in a quiet room with daylight-like illumination. Animals were habituated to the behavioral room and apparatus for at least 60 minutes for 1 week before a blinded investigator collected data. The thermal sensitivity test was performed using an IITC Plantar Analgesia Meter apparatus (IITC Life sciences, Woodland Hills, CA) with a plastic box placed on a glass plate of constant temperature (30° C.). The mouse plantar surface was exposed to a beam of radiant heat to induced paw withdrawal. Baseline latencies were adjusted to 5-9 sec with a maximum of 20 sec as cutoff to prevent potential injury. The latency time in seconds from the onset of the intense light beam to paw withdrawal was defined as the withdrawal latency of the paw. […] The mouse hind paw was pressed with one of a series of von Frey filaments with logarithmically incrementing stiffness (Stoelting Co, Wood Dale, IL) presented perpendicular to the plantar surface of each hind paw for 1-2 seconds, the 50% threshold was determined using the Up- and Down method.

[3] = system: intracellular calcium release in NBL cells; assay: ATP-stimulated calcium release in NBL cells (Fura2 imaging); format: cell-based, human; settings: 1 μM ATP, vs empty vector
Description: Pharmacodynamics—Bioassay of Calcium Release: Fifteen mm glass coverslips (cat #72228 Electron Microscopy Sciences, Hatfield, PA) were coated with poly-D-Lysine (Sigma) followed by Laminin and 1×10^5 cells were seeded on each coverslip. Twenty-four hrs later, cells were transfected with AAV2-ITR, AAV2-V5-Car10, or AAV2-V5-CA10 vectors as previously described. In embodiments wherein AAV2 is not employed, other expression vectors (including viral vectors) are used. Fura-2AM (cat #F1221 ThermoFisher scientific, Waltham, MA) was dissolved in DMSO (50 μg in 50 μl) and 1% pluronic acid-127 (cat #P2443 Sigma, St Louis, MO) as the stock solution. Forty eight hrs after seeding, cells were loaded with 2 μM Fura-2AM dye for 45 min at room temperature in the dark in a standard Ca+2 buffer solution containing: 125 mM NaCl, 2 mM MgCl, 4.5 mM KCl, 10 glucose, 20 mM HEPES, 2 mM CaCl2, pH 7.4.25. Following dye loading, coverslips were washed with Ca^+2 buffer solution. […] Regions of interest over the field of view were selected and the mean pixels intensity at each frame was measured. Data was plotted as ratio fluorescence intensity versus time and subsequently converted to a relative scale. […]

Molecule | mechanical withdrawal threshold [1] | paw withdrawal latency elevation compared to morphine human oral equivalent dose [2] | ATP-stimulated calcium release [3]
B1 | prevents mechanical hyperalgesia | produces profound analgesia | 
B2 | prevents mechanical hyperalgesia | produces profound analgesia | inhibited
